Measured values published in PMC11100747 (bioRxiv, 2024).

T1: Gdi1 (yeast, UniProt P39958 1-451)
T1 sequence: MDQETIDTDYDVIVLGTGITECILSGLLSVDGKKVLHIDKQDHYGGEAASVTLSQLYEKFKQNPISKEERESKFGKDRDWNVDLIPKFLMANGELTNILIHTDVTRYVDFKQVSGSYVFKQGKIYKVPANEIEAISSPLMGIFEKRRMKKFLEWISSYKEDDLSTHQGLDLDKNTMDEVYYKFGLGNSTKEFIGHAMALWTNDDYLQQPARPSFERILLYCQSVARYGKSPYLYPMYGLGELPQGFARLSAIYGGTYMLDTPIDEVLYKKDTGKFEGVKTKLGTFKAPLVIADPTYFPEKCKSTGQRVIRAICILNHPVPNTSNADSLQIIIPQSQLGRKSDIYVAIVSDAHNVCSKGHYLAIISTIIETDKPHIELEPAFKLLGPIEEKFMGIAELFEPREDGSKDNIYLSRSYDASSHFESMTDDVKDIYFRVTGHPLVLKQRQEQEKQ

T2: Ric1 (S. cerevisiae, UniProt P40395 1-1056)
T2 sequence: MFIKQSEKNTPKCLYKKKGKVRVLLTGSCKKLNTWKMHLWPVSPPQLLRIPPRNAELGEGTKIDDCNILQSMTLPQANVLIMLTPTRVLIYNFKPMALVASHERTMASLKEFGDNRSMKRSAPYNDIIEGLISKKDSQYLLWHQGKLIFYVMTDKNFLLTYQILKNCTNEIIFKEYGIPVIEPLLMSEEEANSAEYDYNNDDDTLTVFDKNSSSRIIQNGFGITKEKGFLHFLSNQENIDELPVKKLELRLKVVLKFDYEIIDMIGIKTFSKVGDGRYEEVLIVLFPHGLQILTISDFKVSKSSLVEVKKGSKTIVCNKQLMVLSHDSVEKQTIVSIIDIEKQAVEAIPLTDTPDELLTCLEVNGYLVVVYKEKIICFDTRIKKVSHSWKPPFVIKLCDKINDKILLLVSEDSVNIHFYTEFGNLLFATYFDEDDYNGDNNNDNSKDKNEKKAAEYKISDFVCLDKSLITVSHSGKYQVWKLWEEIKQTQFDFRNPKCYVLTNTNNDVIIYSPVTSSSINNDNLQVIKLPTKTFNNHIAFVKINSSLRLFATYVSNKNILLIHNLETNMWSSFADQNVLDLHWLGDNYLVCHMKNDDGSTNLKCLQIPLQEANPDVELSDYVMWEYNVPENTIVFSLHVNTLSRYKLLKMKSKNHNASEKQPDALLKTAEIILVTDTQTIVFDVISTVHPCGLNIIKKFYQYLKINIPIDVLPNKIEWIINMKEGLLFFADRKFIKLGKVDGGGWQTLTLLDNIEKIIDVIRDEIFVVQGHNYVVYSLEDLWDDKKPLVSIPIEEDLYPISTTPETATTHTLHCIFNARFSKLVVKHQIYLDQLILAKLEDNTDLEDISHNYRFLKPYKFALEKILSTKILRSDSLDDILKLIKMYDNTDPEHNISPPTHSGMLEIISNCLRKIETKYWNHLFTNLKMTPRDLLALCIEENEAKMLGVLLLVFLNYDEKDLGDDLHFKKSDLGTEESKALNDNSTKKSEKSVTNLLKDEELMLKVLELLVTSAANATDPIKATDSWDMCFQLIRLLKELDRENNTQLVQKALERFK


Legend:
Gdi1 = biological target: T1, Gdi1; assay: SEC
Ric1 = biological target: T2, Ric1; assay: cryo-EM structure

Binder | binding result (Gdi1) | binding result (Ric1)
prenylated Rab6-mantGDP (natural protein, C-terminal cysteines prenylated (geranylgeranyl)) MSRSGKSLTKYKIVFLGEQGVGKTSLITRFMYDTFDDHYQATIGIDFLSKTMYLDDKTIRLQLWDTAGQERFRSLIPSYIRDSRVAIIVYDITKRKSFEYIDKWIEDVKNERGDENVILCIVGNKSDLSDERQISTEEGEKKAKLLGAKIFMETSTKAGYNVKALFKKIAKSLPEFQNSESTPLDSENANSANQNKPGVIDISTAEEQEQSACQC | binds | –
Rgp1 (natural protein) MRAHRIDTFLIRENIKLEIIHESNSYFGGEHISIAFRFKHLGSQHELFNYKEKLLTVDKAVEEKLEQQAKVQDDGEGTMENQTWSLKSLLGAFKRTGEPEESVDVDNMKMLNESKMLREKIQKQMYFHQPVTLISGYVQISGVFQYDSEVISESKFKQDEVKMVGLDIVPGHTTNSVLALEDGEHFKGKRNLTNYLNSDYTNVTNGLLFSESGSRGRTGTYNERTLMISNDTSIKTLPLLLIPQTLLFSEISLEPGEVRTFYFKSTKLPKDICPSYSSSKVASINYTLEVGADVLSDDNIEKFSNRVPITIAPYISSNAEQYTSRLDKPAIILKTGNIKELKPRLFTRKVSTASAVSFGRRKSSIIDIDSPLEDNEFVKRVKKNFIELVESNQNVSRDIDELIDLQMGVQFGKDEDSSDPEPNDSHFSNEMVTSAESSLRSDAVTKRRKSYSVRDNISNLEQKMWNDCSLVKSDENSNLLPQLINLQNAYQINRNNETMAKVSLSAPFYKTTDDINLVIELDPITTPLLKVTSLTVSLESFEIINPKYKTEGKGIGSKPKGNSVYEKHFICFDECKSVSVKLLPPRSPTNQITGQFKTDVFQHKWMIGLKFVIIAKTESITLDQFYEDKKGILFHSKENLEGEEFTCYVPIPILCTSEDFMGW | – | binds
